How the values were obtained:
[1] = biological target: Rieske oxygenase from Cupriavidus metallidurans CH34 (RO_CH34) (Cupriavidus metallidurans CH34); experiment: crystal structure
[2] = biological target: Rieske oxygenase from Cupriavidus metallidurans CH34 (RO_CH34) (Cupriavidus metallidurans CH34); experiment: SEC
[3] = biological target: His-tagged phthalate dioxygenase from Comamonas testosteroni KF1 (Ht-PDOKF1) (Comamonas testosteroni KF1); experiment: SEC
[4] = biological target: Phthalate dioxygenase from Comamonas testosteroni KF1 (PDOKF1), as crystallised (Comamonas testosteroni KF1); experiment: crystal structure

Rieske oxygenase from Cupriavidus metallidurans CH34 (RO_CH34) (enzyme)
stoichiometry N [1]: 3
stoichiometry N [2]: 3

His-tagged phthalate dioxygenase from Comamonas testosteroni KF1 (Ht-PDOKF1) (enzyme)
stoichiometry N [3]: 6

Phthalate dioxygenase from Comamonas testosteroni KF1 (PDOKF1), as crystallised (enzyme)
stoichiometry N [4]: 6

Source: article PMC8649396
